Measurements taken from patent US20080263689A1 (GARVAN INSTITUTE OF MEDICAL RESEARCH, published 2008).

Molecular target: T1, insulin receptor (IR) of mouse primary hepatocytes (mouse, UniProt P15208 28-748; P15208 753-1372)
T1 construct: whole, on cells; Endogenous receptor on intact primary hepatocytes from wild type or PKCε-/- mice; in cell lysates for the co-precipitation
Experiment: co-precipitation from hepatocytes of wild type mice; data not shown

T1 sequence (P15208 28-748 limits assumed, chain 1 of 2): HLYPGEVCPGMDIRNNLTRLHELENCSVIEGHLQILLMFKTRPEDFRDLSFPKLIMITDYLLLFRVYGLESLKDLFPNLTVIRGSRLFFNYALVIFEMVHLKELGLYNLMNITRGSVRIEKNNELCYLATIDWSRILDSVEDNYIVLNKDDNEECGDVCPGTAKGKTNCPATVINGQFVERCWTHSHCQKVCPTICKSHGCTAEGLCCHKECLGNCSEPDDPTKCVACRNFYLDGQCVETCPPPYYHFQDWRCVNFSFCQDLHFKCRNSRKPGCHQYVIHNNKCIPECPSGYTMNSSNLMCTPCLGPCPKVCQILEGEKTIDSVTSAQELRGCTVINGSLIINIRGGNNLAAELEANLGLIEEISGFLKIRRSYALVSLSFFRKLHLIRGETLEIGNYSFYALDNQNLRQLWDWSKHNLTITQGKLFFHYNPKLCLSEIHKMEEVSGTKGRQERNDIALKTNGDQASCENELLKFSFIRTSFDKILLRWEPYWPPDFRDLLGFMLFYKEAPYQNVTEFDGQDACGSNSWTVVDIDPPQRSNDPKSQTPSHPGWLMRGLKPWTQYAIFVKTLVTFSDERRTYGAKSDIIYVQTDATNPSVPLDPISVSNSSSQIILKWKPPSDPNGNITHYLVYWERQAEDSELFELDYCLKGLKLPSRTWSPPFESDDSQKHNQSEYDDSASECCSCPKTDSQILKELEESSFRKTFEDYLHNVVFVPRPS
T1 sequence (P15208 753-1372 limits assumed, chain 2 of 2): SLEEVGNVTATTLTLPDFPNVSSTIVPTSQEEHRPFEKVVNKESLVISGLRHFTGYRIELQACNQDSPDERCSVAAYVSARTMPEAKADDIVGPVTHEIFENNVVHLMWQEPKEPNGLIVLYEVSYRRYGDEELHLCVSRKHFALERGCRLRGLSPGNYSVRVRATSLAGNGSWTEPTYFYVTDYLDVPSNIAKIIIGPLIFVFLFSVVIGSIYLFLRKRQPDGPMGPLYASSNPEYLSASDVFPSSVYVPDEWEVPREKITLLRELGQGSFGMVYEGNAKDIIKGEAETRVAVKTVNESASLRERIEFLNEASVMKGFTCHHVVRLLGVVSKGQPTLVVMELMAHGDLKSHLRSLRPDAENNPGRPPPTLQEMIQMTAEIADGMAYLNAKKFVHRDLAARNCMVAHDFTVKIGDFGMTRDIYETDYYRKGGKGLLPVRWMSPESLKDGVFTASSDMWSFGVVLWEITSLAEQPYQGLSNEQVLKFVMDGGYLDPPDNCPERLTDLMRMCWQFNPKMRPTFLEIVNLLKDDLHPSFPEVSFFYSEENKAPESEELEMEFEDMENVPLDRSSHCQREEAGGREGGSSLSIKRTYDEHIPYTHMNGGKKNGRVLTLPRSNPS

- binding result: no binding
B1: protein kinase C epsilon (PKCε), murine (enzyme)
chain: MVVFNGLLKIKICEAVSLKPTAWSLRHAVGPRPQTFLLDPYIALNVDDSRIGQTATKQKTNSPAWHDEFVTDVCNGRKIELAVFHDAPIGYDDFVANCTIQFEELLQNGSRHFEDWIDLEPEGKVYVIIDLSGSSGEAPKDNEERVFRERMRPRKRQGAVRRRVHQVNGHKFMATYLRQPTYCSHCRDFIWGVIGKQGYQCQVCTCVVHKRCHELIITKCAGLKKQETPDEVGSQRFSVNMPHKFGIHNYKVPTFCDHCGSLLWGLLRQGLQCKVCKMNVHRRCETNVAPNCGVDARGIAKVLADLGVTPDKITNSGQRRKKLAAGAESPQPASGNSPSEDDRSKSAPTSPCDQELKELENNIRKALSFDNRGEEHRASSATDGQLASPGENGEVRPGQAKRLGLDEFNFIKVLGKGSFGKVMLAELKGKDEVYAVKVLKKDVILQDDDVDCTMTEKRILALARKHPYLTQLYCCFQTKDRLFFVMEYVNGGDLMFQIQRSRKFDEPRSRFYAAEVTSALMFLHQHGVIYRDLKLDNILLDAEGHCKLADFGMCKEGIMNGVTTTTFCGTPDYIAPEILQELEYGPSVDWWALGVLMYEMMAGQPPFEADNEDDLFESILHDDVLYPVWLSKEAVSILKAFMTKNPHKRLGCVAAQNGEDAIKQHPFFKEIDWVLLEQKKIKPPFKPRIKTKRDVNNFDQDFTREEPILTLVDEAIIKQINQEEFKGFSYFGEDLMP
notes: Endogenous PKCε in hepatocytes of wild type mice
